For the experiment, the target named is T1, YFP-DAT, Q01959.
T1 chain: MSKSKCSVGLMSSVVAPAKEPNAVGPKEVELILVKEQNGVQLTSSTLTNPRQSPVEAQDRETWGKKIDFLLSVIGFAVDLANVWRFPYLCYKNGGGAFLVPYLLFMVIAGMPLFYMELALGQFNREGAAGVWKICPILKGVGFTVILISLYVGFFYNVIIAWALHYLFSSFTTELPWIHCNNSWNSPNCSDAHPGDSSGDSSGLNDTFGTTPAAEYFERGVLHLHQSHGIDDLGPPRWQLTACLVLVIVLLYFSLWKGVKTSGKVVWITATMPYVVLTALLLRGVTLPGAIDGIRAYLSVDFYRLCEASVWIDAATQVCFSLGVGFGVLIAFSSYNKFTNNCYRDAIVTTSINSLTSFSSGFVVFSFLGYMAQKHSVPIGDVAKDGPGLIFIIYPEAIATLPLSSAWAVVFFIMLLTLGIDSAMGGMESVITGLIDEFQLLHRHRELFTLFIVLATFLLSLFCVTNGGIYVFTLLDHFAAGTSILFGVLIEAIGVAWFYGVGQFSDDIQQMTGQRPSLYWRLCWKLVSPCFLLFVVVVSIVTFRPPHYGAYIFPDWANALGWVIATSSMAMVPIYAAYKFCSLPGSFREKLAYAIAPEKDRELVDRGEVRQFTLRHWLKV
The experiment in a line: FRET or BRET; CFP- and YFP-labelled proteins co-expressed in HEK293 cells; three-filter method, 63x oil immersion objective; FRET efficiency, n = 20-30 per group. The conditions noted are these: remark: other sources report otherwise. A general note: In BRET a luciferase serves as donor, and the signal depends on an acceptor being close.

B1: CFP-Flot1, O75955 1-427 (natural protein)
chain: MFFTCGPNEAMVVSGFCRSPPVMVAGGRVFVLPCIQQIQRISLNTLTLNVKSEKVYTRHGVPISVTGIAQVKIQGQNKEMLAAACQMFLGKTEAEIAHIALETLEGHQRAIMAHMTVEEIYKDRQKFSEQVFKVASSDLVNMGISVVSYTLKDIHDDQDYLHSLGKARTAQVQKDARIGEAEAKRDAGIREAKAKQEKVSAQYLSEIEMAKAQRDYELKKAAYDIEVNTRRAQADLAYQLQVAKTKQQIEEQRVQVQVVERAQQVAVQEQEIARREKELEARVRKPAEAERYKLERLAEAEKSQLIMQAEAEAASVRMRGEAEAFAIGARARAEAEQMAKKAEAFQLYQEAAQLDMLLEKLPQVAEEISGPLTSANKITLVSSGSGTMGAAKVTGEVLDILTRLPESVERLTGVSISQVNHKPLRTA
In the case of B1, the FRET efficiency was 7.62.

Values taken from PMC6392109.
